The values below come from article PMC7117912.

Ends that are not written are not given here.

The target of test [1] is H2-D^b (mouse MHC I heavy chain ectodomain) refolded with human β2-microglobulin (mouse | human). In words: fluorescence polarisation; one-step dissociation, uncatalyzed: 300 nM MHC I loaded with TAMRA-labeled peptide, 1000-fold molar excess (300 µM) of unlabeled competitor peptide, no TAPBPR; 23°C, 1xHBS; one-phase exponential decay. (In general: In fluorescence polarisation assays a small probe gives low polarisation when free and higher when bound to something large.)

The target in test [2] is HLA-A*02:01 (human MHC I heavy chain ectodomain, amino acids 1-278) refolded with human β2-microglobulin (human). In words: fluorescence polarisation.

Molecule TQSC(TAMRA)NTQSI [TQSC*NTQSI (fluorescently labeled medium-affinity peptide for H2-D^b)] gave a koff in test [1] of 0.00253 s⁻¹.

Consider FLPSDC(TAMRA)FPSF [FLPSDC*FPSF (fluorescently labeled medium-affinity peptide for HLA-A*02:01)], for which the koff in test [2] is 0.0019 s⁻¹.

As to ASNC(TAMRA)NMETM [ASNC*NMETM (fluorescently labeled high-affinity peptide for H2-D^b)], in test [1], the koff was 0.0002 s⁻¹.

By koff is commonly meant the first-order rate constant of dissociation. Lower therefore signals slow dissociation.
